In patent US20140011209, “Aptamers for Prion Diagnostics and Aptamer Binding Detection System” (Aptrix Biosystems LLC, published 2014):

Tests used:
[1] = biological target: T1, RVV-X (Russell's viper venom factor X activator) (UniProt Q7LZ61;Q4PRD1;Q4PRD2 Q7LZ61:189-619,Q4PRD1:24-146,Q4PRD2:25-158); assay: EMSA; conditions: tags: Haematologic Technologies; label: 32P end; three loops, two bulges, three stems
alpha-Thrombin = alpha-Thrombin (Homo sapiens, UniProt P00734;P00734 P00734:328-363,P00734:364-622); assay: EMSA; conditions: tags: Haematologic Technologies; label: 32P end; two loops and two short stems
[2] = biological target: T1, RVV-X (Russell's viper venom factor X …); assay: EMSA; prion binding component alone; conditions: tags: Haematologic Technologies; label: 32P end; two loops and two short stems
[3] = biological target: RVV-X (Russell's viper venom factor X activator) (UniProt Q7LZ61;Q4PRD1;Q4PRD2 Q7LZ61:189-619,Q4PRD1:24-146,Q4PRD2:25-158); assay: EMSA; conditions: tags: Haematologic Technologies; label: 32P end
[4] = biological target: T1, RVV-X (Russell's viper venom factor X …); assay: EMSA; scrambled SEQ 1, negative control; conditions: tags: Haematologic Technologies; label: 32P end
[5] = biological target: T1, RVV-X (Russell's viper venom factor X …); assay: EMSA; room temperature, 1 h; conditions: tags: Haematologic Technologies, label: 32P end

B1: Fus74_10_5 (ssRNA)
RNA: GACCGGGGAGACAAGACUAGACGCUCAACUACGAACUCAUGACACAAGGAUGCAAUCUCAUCCCGACCUUUGCCUAAACAGCUGAUGGUUUACAAAGGAAGCACG
Work on B1 yielded a Kd [1] of 63.9 nM.

B2: B-end (PrPSc binding region) (ssRNA)
RNA: GGGAGACAAGACUAGACGCUCAACUACGAACUCAUGACACAAGGAUGCAAUCUCAUCCCG
B2 showed a Kd (alpha-Thrombin) of 4220 nM and a Kd [2] of 170 nM.

B3: 74 alone (ssRNA)
RNA: UCCUCAAAGCGACCGACCUUUGCCUAAACAGCUGAUGGUUUACAAAGGAAGCACG
B3 showed a Kd [3] of 75 nM.

B4: Scrambled SEQ ID NO. 107 (ssRNA)
RNA: GGAGGCCAACUAAUAACGCCAGAACUAUAGGAAUCCCAUGAAGCGAGCGAGAAUU
B4 was tested, and the Kd [4] was 131 nM.

UCCUCAAAGCGACCGACCUUUGCCUAAACAGCUGAUGGUUUACAAAGGAA (ssRNA) [74, 5 from 3'] was tested, and the Kd [5] was 352 nM.

With AAAGCGACCGACCUUUGCCUAAACAGCUGAUGGUUUACAAAGGAA (ssRNA) [74, 5 from both] the Kd [5] was 426 nM.

B5: SEQ ID NO. 2 (ssRNA)
RNA: AAGGCGAGGUGCGACCCGCACGUGGCAUCUGAUAGCACAUGAAAAGGCACGUCA
With B5 the Kd [3] was 23 nM.

AAAGCGACCGACCUUUGCCUAAACAGCUGAUGGUUUACAAAGGAAGCACG (ssRNA) [74, 5 from 5'] gave a Kd [5] of 374 nM.

B6: SEQ ID NO. 1 (ssRNA)
RNA: UAGCGACAAGGCGACAAGCAAUGACACAUUAACAGACCCUGGUUAGUGAACGAA
With B6 the Kd [3] was 30 nM.

B7: SEQ ID NO. 3 (ssRNA)
RNA: UCUUCCAACGACCAUGCGGCGACAAGCGACUACAAGAGGGUACCCACGGACAGCA
For B7, the Kd [3] was 94.7 nM.

GACCGACCUUUGCCUAAACAGCUGAUGGUUUACAAAGGAAGCACG (ssRNA) [74, 10 from 5'] was tested, and the Kd ([5]; stem-loop with bulge) was 250 nM.

UCCUCAAAGCGACCGACCUUUGCCUAAACAGCUGAUGGUUUACAA (ssRNA) [74, 10 from 3'] gave a Kd [5] of 301 nM.

B8: SEQ ID NO. 6 (ssRNA)
RNA: UGGCGGAUACUCUGCGAAGGGCGAACCCAACAUUUCGCACAGGACCGACUACUGCA
B8 showed a Kd [3] of 19 nM.

B9: SEQ ID NO. 4 (ssRNA)
RNA: UGGCGACGAGGCGGCAGGCAAUGACACAUUAGCAGACCCUGGUUAAUGAGCGAA
In the case of B9, the Kd [3] is reported as 158 nM.
